Measured values reported in US20040018487A1.

biological target: HPV 16 E6 C-terminal PL peptide (TQL), biotinylated (HPV 16); assay: G assay, HPV16 E6 PL peptide titrated against a constant amount of GST-PDZ

GST-Magi3 PDZ domain 1, sequence (Q5TCQ9 other isoform, or with tags, fused parts or gaps limits assumed): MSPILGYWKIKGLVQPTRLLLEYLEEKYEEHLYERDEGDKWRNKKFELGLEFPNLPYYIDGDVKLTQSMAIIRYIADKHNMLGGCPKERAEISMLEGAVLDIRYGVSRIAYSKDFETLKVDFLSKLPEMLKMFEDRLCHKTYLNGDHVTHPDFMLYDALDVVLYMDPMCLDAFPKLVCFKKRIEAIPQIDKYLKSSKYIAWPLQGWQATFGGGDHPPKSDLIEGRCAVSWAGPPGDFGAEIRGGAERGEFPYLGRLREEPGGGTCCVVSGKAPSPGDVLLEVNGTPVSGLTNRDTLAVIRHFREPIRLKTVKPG
GST-SAST1 KIAA PDZ domain, sequence (Q9Y2H9 other isoform, or with tags, fused parts or gaps): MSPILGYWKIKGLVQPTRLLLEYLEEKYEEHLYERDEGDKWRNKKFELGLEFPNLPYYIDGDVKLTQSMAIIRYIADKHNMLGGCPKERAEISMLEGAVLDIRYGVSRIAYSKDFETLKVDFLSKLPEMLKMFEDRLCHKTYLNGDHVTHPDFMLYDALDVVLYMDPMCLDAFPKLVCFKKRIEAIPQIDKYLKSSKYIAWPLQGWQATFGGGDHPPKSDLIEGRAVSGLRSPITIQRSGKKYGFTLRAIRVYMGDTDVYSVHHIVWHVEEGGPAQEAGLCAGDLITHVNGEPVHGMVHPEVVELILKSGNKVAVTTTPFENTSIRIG
GST-DLG3 PDZ domains 1-2, sequence (Q92796 other isoform, or with tags, fused parts or gaps limits assumed): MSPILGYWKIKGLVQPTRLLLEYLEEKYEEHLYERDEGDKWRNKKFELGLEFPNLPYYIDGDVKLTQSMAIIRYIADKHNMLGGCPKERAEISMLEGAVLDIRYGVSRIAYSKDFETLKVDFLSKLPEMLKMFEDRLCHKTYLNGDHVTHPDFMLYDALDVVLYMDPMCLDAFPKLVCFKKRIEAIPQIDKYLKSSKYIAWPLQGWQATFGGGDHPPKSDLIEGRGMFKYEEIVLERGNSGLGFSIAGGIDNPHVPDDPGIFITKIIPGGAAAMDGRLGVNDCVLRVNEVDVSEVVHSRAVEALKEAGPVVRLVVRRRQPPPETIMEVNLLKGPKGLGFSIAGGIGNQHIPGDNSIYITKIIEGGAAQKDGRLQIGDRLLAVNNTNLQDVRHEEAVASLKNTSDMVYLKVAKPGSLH

Q: Which EC50 does the source give for GST-DLG2 PDZ domain 3 here?
A: Its EC50 is 1.6 µM.

Q: GST-SAST2 PDZ domain was tested. Which EC50 did it give?
A: Its EC50 is 1.2 µM.

Q: How did the EC50 turn out when “GST-Magi3 PDZ domain 1 (from UniProt Q5TCQ9 18-106)” was run?
A: Its EC50 is 0.31 µM.

Q: Which EC50 does the source give for “GST-DLG3 PDZ domains 1-2 (from UniProt Q92796 125-316)” here?
A: The EC50 was 3.8 µM.

Q: GST-SIP1 PDZ domain 1 was tested. Which EC50 did it give?
A: The EC50 was 7.5 µM.

Q: How did the EC50 turn out when “GST-SAST1 KIAA PDZ domain (from UniProt Q9Y2H9 960-1062)” was run?
A: The EC50 was 0.58 µM.

Q: With “GST-VARTUL (PDZ domain not stated) (from UniProt Q14160 720-955)” as the substance, how does the EC50 read?
A: The EC50 was 0.94 µM.

Q: GST-MAGI1 PDZ domain 2 was tested. Which EC50 did it give?
A: The EC50 was 0.056 µM.
